Data on nine substances can be found in patent US9260500B2, “Peptide and use thereof” (Takeda Pharmaceutical Company Limited, priority 2009, dated 2016).

The target of experiment [1] is T1, human Y2 receptor (Homo sapiens, UniProt P49146).
T1 construct: expressed in transfected cells; membrane fraction
T1 sequence (P49146 1-381): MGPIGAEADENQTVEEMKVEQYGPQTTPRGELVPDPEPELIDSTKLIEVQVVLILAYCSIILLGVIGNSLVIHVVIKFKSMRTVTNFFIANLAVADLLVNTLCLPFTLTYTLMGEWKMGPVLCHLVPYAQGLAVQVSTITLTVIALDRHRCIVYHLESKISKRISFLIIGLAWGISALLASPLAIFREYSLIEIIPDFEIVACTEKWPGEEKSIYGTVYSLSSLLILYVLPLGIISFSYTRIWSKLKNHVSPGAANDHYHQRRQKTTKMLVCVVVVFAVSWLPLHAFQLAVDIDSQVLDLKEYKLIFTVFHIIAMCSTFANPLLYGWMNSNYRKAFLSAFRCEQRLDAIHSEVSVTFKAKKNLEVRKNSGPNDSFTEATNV
The experiment in a line: Receptor Binding Assay (RBA) for Human Y2, [125I]-PYY displacement on hY2R/CHO membrane fraction. The conditions noted are these: IC50 of test compound/IC50 of PYY(3-36) (PYY(3-36) taken as 1). In outline:
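Read-out is [125I]-PYY displacement from membranes of CHO/dhfr− cells stably transfected with human Y2R. Membranes were obtained by disrupting cells in a buffer of 10 mM NaHCO3, 5 mM EDTA and protease inhibitors.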

The target in experiment [2] is T1, human Y2 receptor. In words: Human Y2 Receptor G Protein Binding Assay (GBA), [35S]GTPγS. In kind it is biochemical. The following applies: EC50 of test compound/EC50 of PYY(3-36) (PYY3-36 taken as 1), hY2R/CHO membrane fraction. In outline: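 Agonism measured as [35S]GTPγS binding, read by GF/C filtration and scintillation counting after 120 min at room temperature, using human Y2 membranes at 1 μg protein/mL in pH 7.4 Tris/MgCl2/NaCl/GDP buffer. Compound serially diluted 100 μM–1 nM; EC50 normalized to PYY(3-36) (ratio = compound/PYY).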

A further experiment concerns male C57EL/6J mice. The experiment in a line: 3-Days Continuous Subcutaneous Administration Test-1 (food intake suppressing activity). The conditions noted are these: 0.03 mg/kg/day, subcutaneous Alzet pump, food consumption over 3 days; relative to food intake suppression rate for PYY(3-36) (1 mg/kg/day) taken as 100%. The class given is in vivo, mouse. The method, boiled down: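 Male […] mice, 12-13 weeks, received compound at 0.03 mg/kg/day by subcutaneous osmotic pump (50% DMSO vehicle), housed singly with free food access. Food consumed over 3 days measured; suppression expressed relative to PYY(3-36) (1 mg/kg/day) set as 100%.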

Non-standard residues stand in square brackets, D forms with d. *: point of attachment. X9 = (cis-2,6-dimethylmorpholin-4-yl)carbonyl, C[C@@H]1CN(C(=O)*)C[C@H](C)O1; X2 = (tetrahydro-2H-pyran-4-ylmethyl)carbamoyl, O=C(NCC1CCOCC1)*; X7 = (tetrahydro-2H-pyran-4-yl)carbamoyl, O=C(NC1CCOCC1)*; (carboxymethyl)carbamoyl = O=C(O)CNC(=O)*; Tetrahydropyran4carbonyl = O=C(C1CCOCC1)*; 4Pal = N[C@@H](Cc1ccncc1)C(=O)O; Cha = N[C@@H](CC1CCCCC1)C(=O)O; Iva = CC[C@](C)(N)C(=O)O; Aib = CC(C)(N)C(=O)O

Turning to “(Carboxymethyl)carbamoyl-[D-Pro24, Iva25, Pya(4)26, Cha27,36, Aib28,31, Lys30]-PYY(23-36) ({(carboxymethyl)carbamoyl}-S[dP][Iva][4Pal][Cha][Aib]NK[Aib]TRQR[Cha]-NH2; SMILES CC[C@](C)(NC(=O)[C@H]1CCCN1C(=O)[C@H](CO)NC(=O)NCC(=O)O)C(=O)N[C@@H](Cc1ccncc1)C(=O)N[C@@H](CC1CCCCC1)C(=O)NC(C)(C)C(=O)N[C@@H](CC(N)=O)C(=O)N[C@@H](CCCCN)C(=O)NC(C)(C)C(=O)N[C@H](C(=O)N[C@@H](CCCNC(=N)N)C(=O)N[C@@H](CCC(N)=O)C(=O)N[C@@H](CCCNC(=N)N)C(=O)N[C@@H](CC1CCCCC1)C(N)=O)[C@@H](C)O) [compound No. 327]”, the “RBA IC50 Ratio” value in the experiment with human Y2 receptor [1] was found to be 3.0. Also, in the experiment with human Y2 receptor [2], the “GBA EC50 Ratio” value turned out to be 1.6. Also, the “food intake suppression rate (%)” value in the experiment with male C57EL/6J mice is 58%.
The like results for “(Carboxymethyl)carbamoyl-[D-Pro24, Pya(4)26, Cha27,36, Aib28,31, Lys30]-PYY(23-36) ({(carboxymethyl)carbamoyl}-S[dP]R[4Pal][Cha][Aib]NK[Aib]TRQR[Cha]-NH2; ends and bridges not checked) [compound No. 287]” were, in that order, 1.2, 1.2 and 42%.
The like results for “(Tetrahydro-2H-pyran-4-yl)carbamoyl-[D-Pro24, Iva25, Pya(4)26, Cha27,36, Aib28,31, Lys30]-PYY(23-36) (X7-S[dP][Iva][4Pal][Cha][Aib]NK[Aib]TRQR[Cha]-NH2; SMILES CC[C@](C)(NC(=O)[C@H]1CCCN1C(=O)[C@H](CO)NC(=O)NC1CCOCC1)C(=O)N[C@@H](Cc1ccncc1)C(=O)N[C@@H](CC1CCCCC1)C(=O)NC(C)(C)C(=O)N[C@@H](CC(N)=O)C(=O)N[C@@H](CCCCN)C(=O)NC(C)(C)C(=O)N[C@H](C(=O)N[C@@H](CCCNC(=N)N)C(=O)N[C@@H](CCC(N)=O)C(=O)N[C@@H](CCCNC(=N)N)C(=O)N[C@@H](CC1CCCCC1)C(N)=O)[C@@H](C)O) [compound No. 330]” were, in that order, 1.7, 1.8 and 36%.
Regarding “(Tetrahydro-2H-pyran-4-yl)carbonyl-[D-Pro24, Iva25, Pya(4)26, Cha27,36, Aib28,31, Lys30]-PYY(23-36) (Tetrahydropyran4carbonyl-S[dP][Iva][4Pal][Cha][Aib]NK[Aib]TRQR[Cha]-NH2; SMILES CC[C@](C)(NC(=O)[C@H]1CCCN1C(=O)[C@H](CO)NC(=O)C1CCOCC1)C(=O)N[C@@H](Cc1ccncc1)C(=O)N[C@@H](CC1CCCCC1)C(=O)NC(C)(C)C(=O)N[C@@H](CC(N)=O)C(=O)N[C@@H](CCCCN)C(=O)NC(C)(C)C(=O)N[C@H](C(=O)N[C@@H](CCCNC(=N)N)C(=O)N[C@@H](CCC(N)=O)C(=O)N[C@@H](CCCNC(=N)N)C(=O)N[C@@H](CC1CCCCC1)C(N)=O)[C@@H](C)O) [compound No. 342]”, the “RBA IC50 Ratio” value with human Y2 receptor [1] is 3.3. The “GBA EC50 Ratio” value with human Y2 receptor [2] is 1.9. Moreover, in the experiment with male C57EL/6J mice, the “food intake suppression rate (%)” value turned out to be 36%.
Consider “(Tetrahydro-2H-pyran-4-yl)carbonyl-[D-Pro24, Pya(4)26, Cha27,36, Aib28,31, Lys30]-PYY(23-36) (Tetrahydropyran4carbonyl-S[dP]R[4Pal][Cha][Aib]NK[Aib]TRQR[Cha]-NH2; SMILES C[C@@H](O)[C@H](NC(=O)C(C)(C)NC(=O)[C@H](CCCCN)NC(=O)[C@H](CC(N)=O)NC(=O)C(C)(C)NC(=O)[C@H](CC1CCCCC1)NC(=O)[C@H](Cc1ccncc1)NC(=O)[C@H](CCCNC(=N)N)NC(=O)[C@H]1CCCN1C(=O)[C@H](CO)NC(=O)C1CCOCC1)C(=O)N[C@@H](CCCNC(=N)N)C(=O)N[C@@H](CCC(N)=O)C(=O)N[C@@H](CCCNC(=N)N)C(=O)N[C@@H](CC1CCCCC1)C(N)=O) [compound No. 324]”, for which, in the experiment with human Y2 receptor [1], the “RBA IC50 Ratio” value was 1.1. Besides, the “GBA EC50 Ratio” value with human Y2 receptor [2] was found to be 0.71. The “food intake suppression rate (%)” value with male C57EL/6J mice came to 42%.
Take “(Tetrahydro-2H-pyran-4-ylmethyl)carbamoyl-[D-Pro24, Iva25, Pya(4)26, Cha27,36, Aib28,31, Lys30]-PYY(23-36) (X2-S[dP][Iva][4Pal][Cha][Aib]NK[Aib]TRQR[Cha]-NH2; SMILES CC[C@](C)(NC(=O)[C@H]1CCCN1C(=O)[C@H](CO)NC(=O)NCC1CCOCC1)C(=O)N[C@@H](Cc1ccncc1)C(=O)N[C@@H](CC1CCCCC1)C(=O)NC(C)(C)C(=O)N[C@@H](CC(N)=O)C(=O)N[C@@H](CCCCN)C(=O)NC(C)(C)C(=O)N[C@H](C(=O)N[C@@H](CCCNC(=N)N)C(=O)N[C@@H](CCC(N)=O)C(=O)N[C@@H](CCCNC(=N)N)C(=O)N[C@@H](CC1CCCCC1)C(N)=O)[C@@H](C)O) [compound No. 340]”: the “RBA IC50 Ratio” value in the experiment with human Y2 receptor [1] turned out to be 1.7. In addition, the “GBA EC50 Ratio” value with human Y2 receptor [2] was 1.9. The “food intake suppression rate (%)” value in the experiment with male C57EL/6J mice is 27%.
Take “(Tetrahydro-2H-pyran-4-ylmethyl)carbamoyl-[D-Pro24, Pya(4)26, Cha27,36, Aib28,31, Lys30]-PYY(23-36) (X2-S[dP]R[4Pal][Cha][Aib]NK[Aib]TRQR[Cha]-NH2; SMILES C[C@@H](O)[C@H](NC(=O)C(C)(C)NC(=O)[C@H](CCCCN)NC(=O)[C@H](CC(N)=O)NC(=O)C(C)(C)NC(=O)[C@H](CC1CCCCC1)NC(=O)[C@H](Cc1ccncc1)NC(=O)[C@H](CCCNC(=N)N)NC(=O)[C@H]1CCCN1C(=O)[C@H](CO)NC(=O)NCC1CCOCC1)C(=O)N[C@@H](CCCNC(=N)N)C(=O)N[C@@H](CCC(N)=O)C(=O)N[C@@H](CCCNC(=N)N)C(=O)N[C@@H](CC1CCCCC1)C(N)=O) [compound No. 325]”: in the experiment with human Y2 receptor [1], the “RBA IC50 Ratio” value amounted to 0.82. Besides, the “GBA EC50 Ratio” value with human Y2 receptor [2] is 0.7. For the same substance, the “food intake suppression rate (%)” value in the experiment with male C57EL/6J mice was 47%.
Take “(cis-2,6-Dimethylmorpholin-4-yl)carbonyl-[D-Pro24, Pya(4)26, Cha27,36, Aib28,31, Lys30]-PYY(23-36) (X9-S[dP]R[4Pal][Cha][Aib]NK[Aib]TRQR[Cha]-NH2; SMILES C[C@@H]1CN(C(=O)N[C@@H](CO)C(=O)N2CCC[C@@H]2C(=O)N[C@@H](CCCNC(=N)N)C(=O)N[C@@H](Cc2ccncc2)C(=O)N[C@@H](CC2CCCCC2)C(=O)NC(C)(C)C(=O)N[C@@H](CC(N)=O)C(=O)N[C@@H](CCCCN)C(=O)NC(C)(C)C(=O)N[C@H](C(=O)N[C@@H](CCCNC(=N)N)C(=O)N[C@@H](CCC(N)=O)C(=O)N[C@@H](CCCNC(=N)N)C(=O)N[C@@H](CC2CCCCC2)C(N)=O)[C@@H](C)O)C[C@H](C)O1) [compound 269]”: the “RBA IC50 Ratio” value with human Y2 receptor [1] was found to be 0.91. In the experiment with human Y2 receptor [2], the “GBA EC50 Ratio” value is listed as 0.65. For the same substance, the “food intake suppression rate (%)” value in the experiment with male C57EL/6J mice was found to be 11%.
For the substance “Ac-[Aib24,28,31, Pya(4)26, Cha27,36, Lys30]-PYY(23-36) (Ac-S[Aib]R[4Pal][Cha][Aib]NK[Aib]TRQR[Cha]-NH2; SMILES CC(=O)N[C@@H](CO)C(=O)NC(C)(C)C(=O)N[C@@H](CCCNC(=N)N)C(=O)N[C@@H](Cc1ccncc1)C(=O)N[C@@H](CC1CCCCC1)C(=O)NC(C)(C)C(=O)N[C@@H](CC(N)=O)C(=O)N[C@@H](CCCCN)C(=O)NC(C)(C)C(=O)N[C@H](C(=O)N[C@@H](CCCNC(=N)N)C(=O)N[C@@H](CCC(N)=O)C(=O)N[C@@H](CCCNC(=N)N)C(=O)N[C@@H](CC1CCCCC1)C(N)=O)[C@@H](C)O) [compound No. 240]”, the “RBA IC50 Ratio” value with human Y2 receptor [1] is recorded as 0.81. For the same substance, the “GBA EC50 Ratio” value with human Y2 receptor [2] stood at 1.1. For the same substance, in the experiment on male C57EL/6J mice, the “food intake suppression rate (%)” value is 36%.
